Data as given in patent US20210380703A1.
Residue numbers refer to the chain shown, from its start.

B1: 368_A06 (antibody, V domains shown)
VH: EVQLLESGGGLVQPGGSLRLSCAASGFTFDSYSMHWVRQAPGKGLEWVAGINYNSGYKGYADSVKGRFTISRDNSKNTLYLQMNSLRAEDTAVYYCARAANWHDTHLDYWGQGTLVTVSS
VL: DIQMTQSPSSLSASVGDRVTITCRASQSILSYVNWYQQKPGKAPKLLIYAATSRHSGVPSRFSGSGSGTDFTLTISSLQPEDFATYYCQQSYNSPLTFGGGTKVEIK
B2: 374_C01 (antibody, V domains shown)
VH: B1 VH with S33G, H35N, A49S, G59S, A99G, H106A
VL: B1 VL with S31T, V33L, H55A, N93E, S94T
B3: 376_B03 (antibody, V domains shown)
VH: B1 VH with D30S, H35N, G59S, A99G, H106A
VL: B1 VL with L47V, A51V, N93D
B4: 375_E10 (antibody, V domains shown)
VH: B1 VH with D30S, H35N, A49S, S55G, K58T, G59S, A99G, H106A
VL: B1 VL with V33L, L47V, H55A, N93D, S94N
B5: 374_H11 (antibody, V domains shown)
VH: B1 VH with D30S, H35N, A49S, S55G, K58T, G59S, A99G, H106A
VL: B1 VL with L30I, L47V, R54L, N93S, S94N
B6: 375_D01 (antibody, V domains shown)
VH: B1 VH with D30S, H35N, A49S, S55G, K58T, A99G, H106A
VL: B1 VL with S31T, V33L, L47V, H55A, N93E, S94T
B7: 375_C04 (antibody, V domains shown)
VH: B1 VH with D30S, S31D, H35N, S55G, K58T, G59S, A99G, H106A
VL: B1 VL with S31T, V33L, L47V, H55A, N93E
B8: 368_B11 (antibody, V domains shown)
VH: B1 VH with S33G, A49S, S55G, G59S
VL: B1 VL with V33L, T52S, R54L, H55Q, N93D
B9: 374_H01 (antibody, V domains shown)
VH: B1 VH with H35N, S55G, K58T, G59S, A99G
VL: B1 VL with V33L, L47V, R54L, H55A, N93E, S94N
B10: 374_D06 (antibody, V domains shown)
VH: B1 VH with D30S, H35N, A49S, S55G, K58T, G59S, A99G, H106A
VL: B1 VL with L47V, H55A, N93D
B11: 374_C09 (antibody, V domains shown)
VH: B1 VH with S33G, H35N, A49S, G50S, S55G, A99G
VL: B1 VL with L30V, V33L, L47V, H55A, N93E, S94L
B12: 374_B05 (antibody, V domains shown)
VH: B1 VH with H35N, A49S, K58T, G59S, A99G, H106A
VL: B1 VL with L30V, V33L, N93E
B13: 374_D10 (antibody, V domains shown)
VH: B1 VH with D30S, S33G, G50S, S55G, K58T, G59S, A99G
VL: B1 VL with S31T, H55A, N93D, S94N
B14: 375_A12 (antibody, V domains shown)
VH: B1 VH with D30S, H35N, A49S, G59S, A99G, H106A
VL: B1 VL with V33L, L47V, A51V, H55A, N93E, S94T
B15: 375_A08 (antibody, V domains shown)
VH: B1 VH with D30S, H35N, S55G, K58T, A99G, H106A
VL: B1 VL with L30V, S31T, V33L, H55A, N93E
B16: 374_B10 (antibody, V domains shown)
VH: B1 VH with D30S, H35N, A49S, G50S, K58T, G59S, A99G
VL: B1 VL with S31T, L47V, R54L, H55A, N93D, S94T
B17: 375_E03 (antibody, V domains shown)
VH: B1 VH with D30S, S31D, H35N, G50N, S55G, K58T, A99G
VL: B1 VL with S31T, V33L, L47V, R54L, H55A, N93D, S94N
B18: 375_F08 (antibody, V domains shown)
VH: B1 VH with D30S, S33G, H35N, A49S, G50S, G59S, A99G
VL: B1 VL with V33L, N93D, S94N
B19: 374_D05 (antibody, V domains shown)
VH: B1 VH with H35N, A49S, K58T, A99G
VL: B1 VL with S31T, V33L, H55A, N93D, S94T
B20: 374_D03 (antibody, V domains shown)
VH: B1 VH with H35N, S55G, G59S, A99G
VL: B1 VL with L30V, S31T, V33L, H55A, N93D, S94T
B21: 368_B08 (antibody, V domains shown)
VH: B1 VH with S33G, H35N, A49S, G50S, S55G, K58T, G59S
VL: B1 VL with S31T, L47V, H55A, N93E, S94N
B22: 374_G10 (antibody, V domains shown)
VH: B1 VH with D30S, H35N, A49S, G50S, K58T, G59S, A99G
VL: B1 VL with L30V, V33L, L47V, A51V, H55A, N93D
B23: 368_A12 (antibody, V domains shown)
VH: B1 VH with A49S, G50S, H106A
VL: B1 VL with S31T, V33L, L47V, H55A, N93D
B24: 374_F07 (antibody, V domains shown)
VH: B1 VH with H35N, G50S, S55G, K58T, A99G
VL: B1 VL with V33L, L47V, A51V, R54L, H55A, N93E
B25: 375_F02 (antibody, V domains shown)
VH: B1 VH with D30S, H35N, G50S, K58T, G59S, A99G
VL: B1 VL with V33L, H55A, N93D
B26: 368_B10 (antibody, V domains shown)
VH: B1 VH with S33G, G50S, S55G, K58T, G59S, H106A
VL: B1 VL with S31T, V33L, L47V, H55A, Y92D, N93E, S94L
B27: 375_B12 (antibody, V domains shown)
VH: B1 VH with H35N, S55G, G59S, A99G, H106A
VL: B1 VL with L30V, S31T, V33L, H55A, N93D, S94T
B28: 375_H05 (antibody, V domains shown)
VH: B1 VH with D30S, H35N, A49S, G50N, S55G, K58T, A99G, H106A
VL: B1 VL with H55A, N93D, S94T
B29: 375_D10 (antibody, V domains shown)
VH: B1 VH with D30S, H35N, S55G, K58T, G59S, A99G, H106A
VL: B1 VL with S31T, H55A, Y92D, N93D
B30: 374_G09 (antibody, V domains shown)
VH: B1 VH with D30S, H35N, S55G, A99G
VL: B1 VL with L30V, S31R, V33L, L47V, R54L, H55A, N93E, S94L
B31: 375_A07 (antibody, V domains shown)
VH: B1 VH with H35N, A49S, G50S, K58T, A99G
VL: B1 VL with S31T, V33L, H55A, N93D, S94T
B32: 374_C12 (antibody, V domains shown)
VH: B1 VH with D30S, H35N, S55G, G59S, A99G, H106A
VL: B1 VL with S31T, V33L, L47V, H55A, Y92D
B33: 376_C04 (antibody, V domains shown)
VH: B1 VH with D30S, S33G, H35N, A49S, G50N, S55G, K58T, A99G, H106A
VL: B1 VL with A51V, N93D, S94N
B34: 375_G04 (antibody, V domains shown)
VH: B1 VH with D30S, S33G, H35N, G50S, K58T, A99G
VL: B1 VL with L30V, R54L, H55A, N93D
B35: 374_G11 (antibody, V domains shown)
VH: B1 VH with D30S, S31D, H35N, A49S, S55G, K58T, G59S, A99G, H106A
VL: B1 VL with L30I, L47V, R54L, H55A, N93D
B36: 375_G05 (antibody, V domains shown)
VH: B1 VH with D30S, H35N, S55G, K58T, G59S, A99G, H106A
VL: B1 VL with L30V, V33L, A51V, H55A, N93D
B37: 374_G08 (antibody, V domains shown)
VH: B1 VH with H35N, A49S, S55G, K58T, G59S, A99G, H106A
VL: B1 VL with S31T, L47V, H55A, N93D
B38: 374_G03 (antibody, V domains shown)
VH: B1 VH with D30S, S31D, H35N, A49S, S55G, K58T, G59S, A99G, H106A
VL: B1 VL with L30S, V33L, L47V, H55A, Y92D, N93D, S94T
B39: 365_B04 (antibody, V domains shown)
VH: B1 VH with D30S, S33G, G50S, K58T, G59S, H106A
VL: B1 VL with S31T, V33L, Y92D, N93E
B40: 374_B03 (antibody, V domains shown)
VH: B1 VH with H35N, A49S, S55G, K58T, G59S, A99G, H106A
VL: B1 VL with S31T, V33L, L47V, H55A, N93D
B41: 374_F08 (antibody, V domains shown)
VH: B1 VH with H35N, A49S, S55G, G59S, A99G, H106A
VL: B1 VL with S31T, L47V, A51V, H55A, N93D, S94T
B42: 374_D07 (antibody, V domains shown)
VH: B1 VH with H35N, A49S, G59S, A99G, H106A
VL: B1 VL with L30V, V33L, L47V, R54L, H55A
B43: 374_E12 (antibody, V domains shown)
VH: B1 VH with D30S, H35N, A49S, S55G, G59S, A99G, H106A
VL: B1 VL with V33L, L47V, H55A, N93D, S94N
B44: 375_E06 (antibody, V domains shown)
VH: B1 VH with D30S, H35N, A49S, S55G, G59S, A99G, H106A
VL: B1 VL with V33L, L47V, H55A, N93D
B45: 374_B08 (antibody, V domains shown)
VH: B1 VH with H35N, S55G, K58T, G59S, A99G, H106A
VL: B1 VL with L30V, N93E, S94L
B46: 368_B03 (antibody, V domains shown)
VH: B1 VH with S31D, S33G, H35N, A49S, S55G, K58T, G59S, H106A
VL: B1 VL with S31T, V33L, L47V, R54L, H55A, Q90H, N93E, S94N
B47: 375_F07 (antibody, V domains shown)
VH: B1 VH with D30S, S31D, H35N, A49S, G50N, S55G, K58T, A99G, H106A
VL: B1 VL with V33L, H55A, N93D
B48: 374_E10 (antibody, V domains shown)
VH: B1 VH with D30S, H35N, A49S, S55G, G59S, A99G, H106A
VL: B1 VL with V33L, N93D

Target: human Fc (human)
Assay: ELISA, negative control

| optical density | Binder |
| --- | --- |
| 0.483 OD | B1 |
| 0.167 OD | B2 |
| 0.253 OD | B3 |
| 0.187 OD | B4 |
| 0.169 OD | B5 |
| 0.182 OD | B6 |
| 0.221 OD | B7 |
| 0.286 OD | B8 |
| 0.251 OD | B9 |
| 0.172 OD | B10 |
| 0.154 OD | B11 |
| 0.168 OD | B12 |
| 0.329 OD | B13 |
| 0.174 OD | B14 |
| 0.205 OD | B15 |
| 0.17 OD | B16 |
| 0.181 OD | B17 |
| 0.201 OD | B18 |
| 0.171 OD | B19 |
| 0.216 OD | B20 |
| 0.314 OD | B21 |
| 0.173 OD | B22 |
| 0.425 OD | B23 |
| 0.176 OD | B24 |

| optical density | Binder |
| --- | --- |
| 0.205 OD | B25 |
| 0.412 OD | B26 |
| 0.223 OD | B27 |
| 0.167 OD | B28 |
| 0.228 OD | B29 |
| 0.223 OD | B30 |
| 0.188 OD | B31 |
| 0.308 OD | B32 |
| 0.219 OD | B33 |
| 0.161 OD | B34 |
| 0.179 OD | B35 |
| 0.21 OD | B36 |
| 0.206 OD | B37 |
| 0.193 OD | B38 |
| 0.271 OD | B39 |
| 0.166 OD | B40 |
| 0.211 OD | B41 |
| 0.176 OD | B42 |
| 0.177 OD | B43 |
| 0.188 OD | B44 |
| 0.188 OD | B45 |
| 0.297 OD | B46 |
| 0.172 OD | B47 |
| 0.165 OD | B48 |
